Laboratory results as given in the supplement of paper PMC10567573.

B1: C2orf65 (parent)
chain: QLDWDELETNQQHFHALCHSLLVS

Variants of: B1
Assay: protein stability index of a GFP-peptide fusion (GPS, HEK-293T) (PSI 1-6); higher = more stable
Conditions: c terminus: a fixed tail appended
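Also: lentivirally expressed fusions sorted by FACS into six bins by GFP to DsRed ratio, PSI derived from sequencing read proportions per bin multiplied by bin number.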

Protein stability index, by site and new letter:
C18: P 2.99, I 1.66, L 1.35, A 2.11, T 2.25, E 3.64, Q 2.76, D 3.62, W 2.14, N 2.96, F 2.27, M 2.11, K 3.2, H 2.65, V 2.21, Y 2.36, S 2.88, R 2.48, G 2.2
V23: F 1.69, R 2.01, I 1.96, A 2.68, H 2.36, L 1.92, Q 2.48, M 1.99, Y 2.27, E 2.68, C 2.09, T 2.35, N 2.75, W 1.57, S 2.63, G 3.26, K 2.45, D 3.38, P 2.95
A16: H 2.35, T 1.57, S 2.33, R 2.22, I 2.2, D 2.58, C 2.31, V 1.86, F 2.44, N 1.95, L 1.63, K 2.91, P 2.43, Q 2.27, Y 3.02, E 3.07, M 1.95, G 2.41, W 1.53
L7: W 1.33, F 2.13, N 2.84, D 3.63, T 2.16, I 1.82, R 2.16, V 2.36, Y 2.27, G 2.6, Q 2.79, H 2.18, P 2.84, M 1.94, K 2.79, S 2.8, E 3.03
S24: Q 2.04, M 2.02, I 2.99, A 2.11, H 2.33, P 2.5, K 2.27, L 2.73, G 1.78, N 2.25, F 1.7, C 2.18, D 3.08, E 2.11
Q12: H 1.92, P 2.73, Y 1.48, A 1.84, I 2.55, R 2.37, K 1.84, V 2.17, S 2.62, E 2.43, G 2.69, F 1.45, T 2.13, D 2.37, L 1.67, N 2.1, W 2.6, M 1.83, C 2.06
Q11: H 2.07, F 2.13, C 1.9, I 1.39, S 1.79, P 2.02, A 1.66, K 1.97, R 2.29, V 1.45, L 2.23, D 2.56, M 2.39, E 2.39, G 2.62, N 2.34, W 2.01, Y 1.39, T 2.04
L21: G 3.04, E 3.87, T 2.93, N 3.01, W 2.22, H 2.87, D 3.83, S 3.09, C 1.61, P 2.95, V 3.04, R 3.15, Y 2.37, A 3.23, I 2.06, Q 2.91, F 2.31, K 2.94, M 2.28
E8: I 2.01, Q 1.89, S 1.67, L 2.31, P 1.87, V 1.21, N 2.07, M 2.73, T 1.61, H 1.95, C 1.59, K 1.39, A 1.57, G 1.64, F 1.57, Y 1.87, W 2.9, D 2.11, R 1.99
H19: D 2.94, M 1.66, E 2.93, L 1.04, G 2.17, K 2.15, I 1.79, N 2.17, W 1.04, Q 2.67, C 2.21, P 2.65, F 1.69, V 1.96, R 1.94, A 1.88, Y 1.94, S 2.07, T 2.02
L17: W 2.21, M 2.38, F 1.9, V 1.74, G 2.43, N 3.12, E 3.69, Q 3.02, D 4.07, K 2.69, P 3.92, C 2.58, S 2.58, I 2.14, Y 2.05, R 2.68, T 3.57, H 2.6, A 2.75
F14: T 3.32, A 3.53, G 3.51, H 2.67, Q 3.42, E 3.58, N 3.19, I 2.48, P 2.87, Y 2.34, S 2.91, V 2.79, K 3.26, D 3.95, C 2.46, L 2.75, W 2.18, M 2.72, R 2.44
T9: C 2.21, W 1.81, R 1.61, S 2.37, I 1.69, V 3.67, D 2.39, K 1.97, G 2.07, P 1.91, L 1.52, E 2.88, Y 1.84, Q 2.75, N 1.56, A 2.71, M 2.35, F 1.8, H 2.54
H13: E 2.89, L 1.99, C 2.31, F 2.15, V 1.85, S 1.98, W 1.55, Y 2.5, Q 2.36, D 2.37, M 1.65, G 2.39, P 2.63, R 1.88, I 1.71, T 2.51, N 2.35, K 2.02, A 2.16
N10: M 2.18, L 1, I 2.19, E 2.33, G 2.82, Y 1.99, T 1.55, V 1.62, S 2.2, C 1.76, K 2, R 2.81, A 2.04, P 2.31, D 2.87, Q 2.07, H 2.17, W 2.25, F 1.69
L22: M 3.01, F 2.21, Q 2.81, P 3.16, C 2.58, R 2.96, A 3.29, Y 2.44, K 2.37, S 2.58, N 2.69, W 1.64, T 3.08, V 2.34, E 3.38, H 2.69, D 3.77, I 2.95
H15: P 2.12, G 2.48, D 2.64, Q 1.72, S 1.85, R 1.71, F 1.36, C 1.66, W 1.74, E 2.78, A 1.92, M 2.33, I 2.36, V 2.39, Y 1.82, T 2.28, L 1.61, N 2.26, K 2.42
S20: W 1.9, K 2.04, T 1.95, H 2.57, R 1.91, A 1.79, Q 2.03, P 2.33, N 2.61, M 2.27, G 2.21, D 2.98, L 2.19, F 1.43, I 2.13, Y 2.05, C 1.5, E 1.93, V 2.33
